Measured values taken from patent US20240301023A1.

How the values were obtained:
[1] = molecular target: Kappa opioid receptor (KOR) (Homo sapiens (Human)) (UniProt P41145); assay: HTRF Tag-Lite KOP ligand binding assay; competition against naltrindole (8 nM)
[2] = molecular target: Kappa opioid receptor (KOR) (Homo sapiens (Human)) (UniProt P41145); assay: cell-based or functional assay
[3] = molecular target: Kappa opioid receptor (KOR) (Homo sapiens (Human)) (UniProt P41145); assay: HTRF Tag-Lite KOP ligand binding assay; competition against naltrindole (8 nM); Ki relative to Kd of naltrindole
[4] = molecular target: Mu opioid receptor (MOR); assay: cell-based or functional assay
[5] = molecular target: Delta opioid receptor (DOR); assay: cell-based or functional assay

## SEQ ID NO. 19: NH2-Tyr-Sar-(4-NO2)Phe-Leu-NMA-NMA-NH2 (peptide)
[1]
  IC50: 1950 nM
  Log IC50: -5.71
[2]
  Activity (EC50, nM), cAMP assay: 31.1 nM
[3]
  Ki: 180 nM

## SEQ ID NO. 24: NH2-Tyr-Sar-(4-Cl)Phe-Leu-Arg-DArg-C7H14-CONH2 (peptide)
[1]
  IC50: 72.6 nM
  Log IC50: -7.14
[2]
  Activity (EC50, nM), cAMP assay: 3.87 nM
[3]
  Ki: 6.7 nM

## Dyn1-7 (SEQ ID NO. 38: Tyr-Gly-Gly-Phe-Leu-Arg-Arg) (peptide)
[2]
  Activity (EC50, nM), cAMP assay: 1600 nM
[4]
  Activity (EC50, nM), cAMP assay: 3740 nM
[5]
  Activity (EC50, nM), cAMP assay: 870 nM

## SEQ ID NO. 18: NH2-Tyr-Sar-(4-NO2)Phe-Leu-Arg-NMA-NH2 (peptide)
[2]
  Activity (EC50, nM), cAMP assay: 1.77 nM

## SEQ ID NO. 20: NH2-Tyr-Sar-(4-Cl)Phe-Leu-Arg-DArg-Ile-Arg-NH2 (peptide)
[2]
  KOPr desensitisation in HEK293-KOPr cells: reduction in maximal cAMP response after 6 h pretreatment at 1 µM: 50%

## SEQ ID NO. 4: NH2-Tyr-Sar-(4-NO2)Phe-Leu-Arg-DArg-NH2 (peptide)
[1]
  IC50: 30.2 nM
  Log IC50: -7.52
[2]
  Activity (EC50, nM), cAMP assay: 8.4 nM
  cAMP assay (ALPHAScreen), result at 1 µM peptide: 34.9
  cAMP assay (ALPHAScreen), result at 10 µM peptide: 40.3
[3]
  Ki: 2.8 nM
